Measured values: article doi:10.1101/2023.02.13.528223

Target: DNMT3A^R736S (human) (UniProt Q9Y6K1)
Assay: SEC + other: negative-stain EM

“DNMT3A^R736S (from UniProt Q9Y6K1 1-912) (enzyme)” gave a stoichiometry N of 2.
